Here are results for 1 protein from US20080207517A1 (INSTITUT PASTEUR, published 2008).

The data set deals with the molecule itself. Description: gel filtration (Superdex 75) at 10 µM, self-association. The procedure: The oligomeric states of peptides were determined by filtration as described in Traincard et al., 2003. In brief, 500 μl samples were loaded on a SUPERDEX™ 75 HR 10/30 column equilibrated in 50 mM Tris-HCl pH 8.0 containing 200 mM NaCl and 0.1 mM DDM, at a constant flow rate of 0.4 ml/min. The presence of the DDM detergent was added in the equilibrium buffer to minimize the adsorption in the column and to increase the peptide recovery. The column was calibrated in the same equilibrium buffer with blue dextran 2000 (void volume), dithioerythritol (total volume), bovine serum albumin (67 kDa, Rs=35.2 Å), ovalbumine (43 kDa, Rs=27.5 Å), chymotrypsinogen A (25 kDa, Rs=21.1 Å), ribonuclease A (13.7 kDa, Rs=16.4 Å), cytochrome C (12.4 kDa, Rs=17.7 Å) and aprotinin (6.5 KDa, Rs=13.5 Å).
The antennapedia sequence is a protein transduction domain (PTD) which adopts an alpha-helical amphiphatic structure (Prochiantz, 2000, Curr. Opin. Cell Biol.). […] To examine the effect of N-fusion of the antennapedia peptide on the oligomerization properties of the CC2 and the LZ peptides, the present inventors analyzed peptides containing or not containing the antennapedia sequence at their N-terminus by gel filtration. […]
A general note: Size exclusion chromatography separates by hydrodynamic size, large species first.

B1: LZ (WT) (peptide)
peptide: Ac-LKAQADIYKADFQAERHAREKLVEKKEYLQEQLEQLQREFNKL-NH2
notes: Forms a dimer at 10 uM in gel filtration; also called LZ peptide; LZ wild type
In the case of B1, the binding result is “binds”.
